T1: Ir-CPI (Ixodes ricinus Contact Phase Inhibitor), recombinant, without its peptide signal
T1 chain: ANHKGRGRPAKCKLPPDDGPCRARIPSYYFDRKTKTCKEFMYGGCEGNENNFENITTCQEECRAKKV


Molecular target: T1, Ir-CPI (Ixodes ricinus Contact Phase …)

| Protein | amidolytic activity (chromogenic substrate S-2222), protease preincubated with Ir-CPI at 1:5 molar ratio | activation of factor XI into factor XIa by factor XIIa, reconstituted system with purified factors, chromogenic substrate | activation of prekallikrein into kallikrein by factor XIIa, reconstituted system with purified factors, chromogenic substrate | amidolytic activity (chromogenic substrate S-2302), protease preincubated with Ir-CPI at 1:5 molar ratio |
| --- | --- | --- | --- | --- |
| factor Xa (protein) chain 1: ANSFLEEMKKGHLERECMEETCSYEEAREVFEDSDKTNEFWNKYKDGDQCETSPCQNQGKCKDGLGEYTCTCLEGFEGKNCELFTRKLCSLDNGDCDQFCHEEQNSVVCSCARGYTLADNGKACIPTGPYPCGKQTLER chain 2: IVGGQECKDGECPWQALLINEENEGFCGGTILSEFYILTAAHCLYQAKRFKVRVGDRNTEQEEGGEAVHEVEVVIKHNRFTKETYDFDIAVLRLKTPITFRMNVAPACLPERDWAESTLMTQKTGIVSGFGRTHEKGRQSTRLKMLEVPYVDRNSCKLSSSFIITQNMFCAGYDTKQEDACQGDSGGPHVTRFKDTYFVTGIVSWGEGCARKGKYGIYTKVTAFLKWIDRSMKTRGLPKAKSHAPEVITSSPLK | The results obtained did not show any effect of Ir-CPI protein on the amidolytic activity of these factors | – | – | – |
| factor XIIa (protein) IPPWEAPKEHKYKAEEHTVVLTVTGEPCHFPFQYHRQLYHKCTHKGRPGPQPWCATTPNFDQDQRWGYCLEPKKVKDHCSKHSPCQKGGTCVNMPSGPHCLCPQHLTGNHCQKEKCFEPQLLRFFHKNEIWYRTEQAAVARCQCKGPDAHCQRLASQACRTNPCLHGGRCLEVEGHRLCHCPVGYTGAFCDVDTKASCYDGRGLSYRGLARTTLSGAPCQPWASEATYRNVTAEQARNWGLGGHAFCRNPDNDIRPWCFVLNRDRLSWEYCDLAQCQTPTQAAPPTPVSPRLHVPLMPAQPAPPKPQPTTRTPPQSQTPGALPAKREQPPSLTRNGPLSCGQRLRKSLSSMTRVVGGLVALRGAHPYIAALYWGHSFCAGSLIAPCWVLTAAHCLQDRPAPEDLTVVLGQERRNHSCEPCQTLAVRSYRLHEAFSPVSYQHDLALLRLQEDADGSCALLSPYVQPVCLPSGAARPSETTLCQVAGWGHQFEGAEEYASFLQEAQVPFLSLERCSAPDVHGSSILPGMLCAGFLEGGTDACQGDSGGPLVCEDQAAERRLTLQGIISWGSGCGDRNKPGVYTDVAYYLAWIREHTVS | – | Ir-CPI inhibits ... the activation of factor XI into factor XIa by factor XIIa | Ir-CPI inhibits the activation of prekallikrein into kallikrein by factor XIIa | The results obtained did not show any effect of Ir-CPI protein on the amidolytic activity of these factors |

From patent US20080219970
